Test results taken from the nanobody polyreactivity screen of Harvey et al. (2022).

Experiment: yeast display, Sf9 membrane polyspecificity reagent, FACS + sequencing; frameworks hold sequencing errors
How it was run: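 A nanobody's polyreactivity label depends on the gate it was sorted from. Yeast display cells were stained with 10% biotinylated, detergent-solubilized Sf9 membrane reagent for 1 hour at 4 °C, enriched on streptavidin microbeads and sorted by FACS. The low and high (top ~1%) gates were set on anti-HA fluorescence for expression and streptavidin fluorescence for reagent binding.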

| Sequence | polyreactivity (PSR sort gate) |
| --- | --- |
| QVQLVESGGCLVQAGGSLRLRCAASGSSFAYNDMGWDRQAPGKDRELVATIRNGGSTYYADSVKGRFTISRDNAKNTVYLQRNSLKPEDTAVYYCAAVPLWDYKFCYYLLYDYWGQGTQVNVSS | low polyreactivity |
| QVQLVESGGGLVQAGGTLRLSCAASGRTFYYYTMGWYRQAPGKERDLVAAISSTGNTYYADSVKGRFTISRDNAKNSVYLQMNSLNPADTALYYCAASGGSSDAYWGQGTQVTVSS | high polyreactivity |
| QAQLVESGGGLVQAGGSLRLSCAASGSTSLDNAMGWYRQAPGKERELVAAIRWRGSITFYADSVKGRFTISRDNAKNTVYLQMNSLKPEDTAVYYCAVTLRYTRSGAYDYWGQGTQVTVSS | low polyreactivity |
| QVQLVESGGGLVQAGCSLRLSCAASGRIFSFYVMGWYRQAPGKERELVAAISLSGGSTYYADSVKGRFTISRDNAKNTVYLQMNSLKPEDTAVYYCNAVLYARLRDRWARYDYWGQGTQVTVSS | high polyreactivity |
| QVQLVESGGGLVQAGGSLRLSCAASGRIFGPYVMGWYRQAPGKEREFVAAISRRTGSTYYADSVKGRFTISRDNAKNTVYLQMNSLKPEDTAVYYCAATYYFSHVVGYGYWGQGTQVTVSS | high polyreactivity |
| QVQLVESGVGLVQAGGSLRLSCAASGGTFVTYAMGWFSQAPGKERELVAAISATDGRTYNADSVKGRFTISRDNAKNTVYLQMNSLKPADTAVYYCAAVGPYTQSRGKYSNLFYWGQGTQVTVSS | high polyreactivity |
| QVQLVESGGGLVQAGGSLRLSCAASGRIFTPNAMGWSRQAPGKERELVAAITWSGDNTYADSVKGRFTISRDNAKNTVYLQMNSLKPEDTAVYYCAAAYGYGHKKYGYWGQGTQVTVSS | low polyreactivity |
| QVQLVESGGGLVQAGGSLRLSCAASGFTFLRYALGWYRQAPGKERELVAAISTSGGSTSYADSVKGRFTITRDNAKNTVYLQMNSLKPEDTAVYYCNAVLYKVSISEYDYWGQGTQVTVSS | high polyreactivity |
| QVQLVESGGGLVQAGGSLRLSCAASGSTSLSYVMGWYRQAPGKERELVASITSSGGSTYYADSVKGRFTISRDNAKNTVYLQMNSLKPEDTAVYYCNARSYIDPFSPTSYYRYYWGQGTQVTVSS | high polyreactivity |
| QVQLVESGGGLVQAGGSLRLSCAASGRIFADNAMGWYRQAPGKERELVADITYSGGSTYYADSVKGRFTISRDNAKNTVYLQMNSLKPEDTAVYSCAKQGVDYWGQGTQVTVSS | low polyreactivity |
| QVQLVESGGGLFQAGGSLRLSCAASGSTFGTYAMGRYRPPPAKERELVAAISTGGSTYYADSVKGRFTISRDNAKNTVYLQMNSLKPEDTAVYYCAALADYVRRASDYWGQGTQVTVSS | low polyreactivity |
| QVQLVESGGGLVQAGGSLRLSCAASGSTFYVNAMGWYRQAPGKEREFVAAISWSGGSTYYADSVKGRFTISRDNAKNTVYLQMNSLKPEDTAVYYCAADRVRKDGVLFDYWGQGTQGTVSS | high polyreactivity |
| QVQHVESCGGLVQAGGSLRLSCAASGRIINSNDMGWYRQAPGKERELVAAISKRGGSTFYADSVKGRFTISRDNAKNTVYLQRNSLKPEDTAVYYCAADKWTYYYAVDSWGQGTQVTVSS | high polyreactivity |
| QVQLVESGGGLVQAGGSLRLSCAASGRTLDKYAMGWYRQAPGKERELVAAITSGGSTNYADSVKGRFTISRDNAKNTVYLQMNSLKPEDTAVYYCAKDLQGNPHFSYGIDFDYWGQGTQVTVSS | low polyreactivity |
| QVQLVESGGGLVQAGGSLRLSCAASGRTFYPYAMGWYRQAPGKERELVAAIRRSDGSTYYADSVKGRFTISRDNAKNTVYLQMNSLKPEDTAVYYFAAGQGSRNQYYYWGHGTQVTVSS | high polyreactivity |
| QVQLVESGGGLVQAGGSLRLSCAASGSIITYYAMGGYRQAPGKERELVAGISARGGSTRYADSVKGRFTISRDNAKNTVYLQMNSLKPEDTAVYYCAADSRTNGYDYWGQGTQVTVSS | high polyreactivity |
| QVQLVESGGGLVQAGGSLRLSCAASGLTFNFYAMGWYRQAPGKEREFVAAISRSGGSTHYADSVKGRFTISRDNAKYTVYLQMNSLKPEDTAVYYCAADGGRKNYDYWGQGTQVTVSS | high polyreactivity |
| QVQLVESGGGLVQAGGSLRLSCAASGSTFLRYAMGWYRPAPGKERELVAAISWSGGTTYYADSVKGRFTISRDNAKNTVYLQMNSLKPEDTAVYYCNTASWRAQYYYWGQGTQVTVSS | high polyreactivity |
| QVQLVESGGGLVQAGGSLRLSCAASGRTFRPYAMGWYRQAPGKERELVAAITRSGGSTYYADSVKGRFTISRDNAKNTVYLQMNSLKPEDTAVYYCAAYNTYSDTYDYWGQGTQVTVSS | low polyreactivity |
| QVQLVESGGGLVQAGGSLRLSCAASGSIFDWYDMGWYRQAPRKEGELVAAISSGDSSYYADSVKGRFTISRDNAKNTVYFQIISLKPEDTAVYFCAAVTKLSGIRYNYWGQGTQLTVSS | low polyreactivity |
| QVQLVESGGGLVQAGGSLRLSCAASGSTFKHNTMGWYRQAPGKERELVAAITSSGGTYYADSVKGRFTISRDNAKNTVYLQMNSLKPEDTAVYYCAARVTYRGRAYDYWGQGTQVTVSS | high polyreactivity |

| Sequence | polyreactivity (PSR sort gate) |
| --- | --- |
| QVQLVESGGGLVQAGGSLRLSCAASGRIFIRNDMGWYRQAPGKERELVAVITRSGGRTYYADSVKGRFTISRDNAKNTVYLQMHSLKPEDTAVYSCAKRQAFKQAPYEYWGQGTQVTVSS | low polyreactivity |
| QVQLVESGGGLVQAGGSLRLSCAASGFTFRSYTMGWYRQAPGKERELVAAITSRGTSTYYADSVKGRFTISRDNAKNTVYLQMNSLKPEDTAVYYCADPIYNGYASWQVYYWGQGTQVTVSS | high polyreactivity |
| QVQLVESGGGLVQAGGRLRLSCAASGRTFSNYAKGWYRQAPGKEREFVAGIRYNGGSTYYADSVKGRFTISRDNAKNTVYLQMKSLKPEDTAVYYCAARYSRSMDYWGQGTQVTVSS | high polyreactivity |
| QVQLVESGGGLVQAGGTLRLSCAASGFTFFSNAMGWYRQPPGKERELVAAIPTNGGSTYYADSVKGRFTISRDNAMNTVYLQMNSLKPEDTALYYCAAEYTVGGPYSYDFWGQGTQVTVSS | low polyreactivity |
| QVQLVESGGGLVQAGGSPRLSCAASGRTFAEYPMGWYRQAPGKERELVAGISWSGGSTYYADSVKGRFTISRDTAKNTVYLQMNSMKPDDTAVYYCAARGWKRGYYIGHYYYWGQGTQVTVSS | low polyreactivity |
| QVQLVESGGGLVQAGGSLRLSCAASGLIFGRNAMGWYRQAPGKERELVAAISYRGGSTYYADSVKGRFTISRDNAKNTVYLQMNSLKPEDTAVYYCNRVWYAWGTGYDYWGQGTQVTVSS | high polyreactivity |
| QVQLVESGGGLVQAGGSLRLSCAASGRTFPSYTMGWSRQAPGKERELVAAITWTGGSTYYADSVKGRFTISRDNAKNTVYLQMISLKPEDTAVYYCADYDYWGHGTQVTVSS | low polyreactivity |
| QVQLVESGGGLVQAGGSLRLSCAASGRIFGRYAMGWYRQAPGKERELVAVISSGGSTYYADSVKGRFTISRDNAKNTVYLQMNSLKPEDTAVYYCAAVNRGGYDYWGQGTQVTVSS | low polyreactivity |
| QVQLVESGGGLVQAGGSLRLSCAASGFIFSWYAMGWYRQAPGKERELVAAIDQSGDSTYYADSVKGRFTISRDNAKNTVYLQMNSLKPEDTAVYYCAAQSYDYWYDYDYWGQGTQVTVSS | high polyreactivity |
| QVQLVESGGGLVQAGGSLRLSCAASGRIYSNYAIGWYRQAPGKERELVAAITSGGRTNYADSVKGRFTISRDNAKNTVYLQMNSLKRDDTAVYYCDAETTPYQPDGFDEYYYWGQGTQVTVSS | high polyreactivity |
| QVQLVESGGGLVQAGGSLRLICAASGSIFCTYAMGWYRQAPGKERELVAAITTSVGRTYYADSVKGRFTISRDNAKNTVYLHMNSLKPDDTAVYYCYAVRGGRYGLDYWGQGTHVTVSS | high polyreactivity |
| HVQLVESAGGLVQAGGSLRLSCAASGSILPRYAKGWYRQAPGKERELVAAISWSGGNTYYADSVKGRFTISRDNAKNTVYFQMNSLTPEDTAVSYSAARQYDWVIQGSRVRPVHYDYWGQGTQVNVSS | high polyreactivity |
| QVQLVESGGGLVQAGGSLRLSCAASGFIFRGNAMGWYRQAPGKERELVAAISVRGGRTYYADSVKGRFTISRDNAKNTVYLQMNSLKPEDTAVYYCAADLYNRGRGSSQSYRTGYDYWGQGTQVTVSS | high polyreactivity |
| QVQLVESGGGLVQAGGSLRLSCAASGFTFRAYAMGWYRQAPGKEREFVAAISRRGGSTSYADSVKGRFTISRDIAKNTVYLQMNSQKPEDTSVYYCAADVQEEYDYWGQGTQVTVSS | high polyreactivity |
| QVQLVESGGGLVQAGGSLRLSCAASGRTFHSYAMGWYRQAPGKEWELVAGISWGGTRTTYADSVKGRFTISRDNSKNTVYLQMNSLKPEDTAVYYCNAVYYALGRSPPDYGYWGQGTQVTVSS | low polyreactivity |
| QVQLVESGGGLVQAGGSLRLSCAASGRIFIYYAMGWYRQAPGKERELVAAITSGGSTIYADSVKGRFTIPRDNAKNTVYLQMNSLKPEDTAVYDCAARYVRSQTRFDYWGQGTQVTVSS | high polyreactivity |
| QVQLVESGGGLVQAGGSLRLSCAASGRIFHYYAMGWYRQAPGKERELVAAIRWSGGDTYYADSVKGRFTISRDNAKNTVYLQMNSLKPEDTAVYYCAAYEHVYEYDYWGQGTQVTVSS | low polyreactivity |
| QVQLVESGGGLVQAGGSLRLSCAASGFTFNANAMGWYRQAPGKERELVAFITRSGGRTYYADSVKGRFTISRDNAKNTVYLQMNSLKPEDTAVYYCAKEGPSRVYQGTDSASDYWGQGTQVTVSS | high polyreactivity |
| QVQLVESGGGLVQAGGSLRLSCAASGRTFANNAMGWYRQAPGKERELVAAITASGGRTYYADSVKGRFTISRDNAKNTVYLQLNSLKPEDTAVYYCAKRGYASGSKWDYGYWGQGTQVTVSS | high polyreactivity |
| QVQLVESGGGLVQAGGSLRLSCAASGSTSGKNAMGWYRQAPGKERELVAVITYSGSRTYYADSVKGRFTISRDNAKNTVYLQMNSLKPEDTAVYYCAAVGGGVSFRGNYWGQGTQVTVSS | high polyreactivity |
